Laboratory results from publication PMC12552129, “Methylthio-alkane reductases use nitrogenase metalloclusters for carbon–sulfur bond cleavage” (Nature Catalysis, 2025).
“And” between values parts separate entries of the source, which are not always exact repeats. Equal values may be shown once.

T1: Mar(DK)2, catalytic component of the methylthio-alkane reductase from Rhodospirillum rubrum (Rhodospirillum rubrum, UniProt Q2RW97 1-511; Q2RW98 1-466)
T1 construct: MarD of Rhodospirillum rubrum, as the chain of m2; MarK of Rhodospirillum rubrum, as the chain of m3; Heterotetramer by mass photometry (227 kDa measured, 217 kDa theoretical); holds two P-clusters and two [Fe8S9C]-clusters; No tag cleavage is described; The deposited model (MarDK2H2) holds only one of the two MarD copies; copies: 2 + 2
T1 sequence 1: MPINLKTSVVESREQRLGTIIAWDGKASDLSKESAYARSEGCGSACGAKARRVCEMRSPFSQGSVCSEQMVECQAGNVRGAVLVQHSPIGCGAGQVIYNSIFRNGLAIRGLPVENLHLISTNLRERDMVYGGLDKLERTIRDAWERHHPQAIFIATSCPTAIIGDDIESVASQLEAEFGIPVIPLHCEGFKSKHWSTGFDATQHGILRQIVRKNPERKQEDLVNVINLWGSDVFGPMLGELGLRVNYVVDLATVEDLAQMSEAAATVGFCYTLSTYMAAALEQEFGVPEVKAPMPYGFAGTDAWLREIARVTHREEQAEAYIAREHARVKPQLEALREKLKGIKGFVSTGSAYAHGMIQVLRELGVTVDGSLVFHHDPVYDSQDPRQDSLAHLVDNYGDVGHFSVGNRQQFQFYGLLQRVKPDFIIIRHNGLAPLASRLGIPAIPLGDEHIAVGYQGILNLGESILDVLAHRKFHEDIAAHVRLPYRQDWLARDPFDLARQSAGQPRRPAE
T1 sequence 2: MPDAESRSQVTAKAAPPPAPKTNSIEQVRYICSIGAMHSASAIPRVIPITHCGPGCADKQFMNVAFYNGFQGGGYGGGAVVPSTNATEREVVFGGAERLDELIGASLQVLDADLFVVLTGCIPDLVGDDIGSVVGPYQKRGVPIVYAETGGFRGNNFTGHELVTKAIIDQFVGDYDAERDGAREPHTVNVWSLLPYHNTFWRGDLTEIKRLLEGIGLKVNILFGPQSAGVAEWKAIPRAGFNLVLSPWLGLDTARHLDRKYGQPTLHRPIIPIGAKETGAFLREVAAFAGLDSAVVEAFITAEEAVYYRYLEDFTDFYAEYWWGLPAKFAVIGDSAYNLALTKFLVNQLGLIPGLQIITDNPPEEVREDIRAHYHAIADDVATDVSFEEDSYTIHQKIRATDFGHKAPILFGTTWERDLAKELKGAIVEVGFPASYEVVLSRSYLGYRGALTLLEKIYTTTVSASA

T2: MarD subunit of the methylthio-alkane reductase catalytic component from Rhodospirillum rubrum (Strep-tagged) (Rhodospirillum rubrum, UniProt Q2RW97 1-511)
T2 construct: MarD, subunit of the catalytic component of the methylthio-alkane reductase (marHDK) of Rhodospirillum rubrum; 57.5 kDa with the Strep tag; Holds the [Fe8S9C]-cluster; also called D1; source: Rhodobacter capsulatus MM0422 (plasmid-based, anfH promoter), soluble fraction of the lysate; purified anaerobically with MarK (Strep-Tactin XT 4Flow, PD-10 desalting); not shown: Strep-tag II, C-terminal, …
T2 sequence: T1 sequence 1

B1: MarH2, reductase component of the methylthio-alkane reductase from Rhodospirillum rubrum (His-tagged MarH) (enzyme)
chain: AKSPKQIAIYGKGGIGKSTTTSNISAALAEAGYKVMQFGCDPKSDSTNTLRGGDYIPSVLDLLRENARVDAHEAIFQGFGGIYCVEAGGPAPGVGCAGRGIITAVELLKQQNVFEELDLDYVIFDVLGDVVCGGFAVPIREGIAEHVFTVSSSDFMAIYAANNLFKGIQKYSNAGGALLGGVIANSINTDFHRDIIDDFVARTQTQVVQYVPRSLTVTQAELQGRTTIEAAPESAQAEIYRTLARSIADHTDSKVPTPLNAQELRDWSASWANQLIEIERASQPIPALAS
notes: MarH, reductase subunit of the methylthio-alkane reductase (marHDK) of Rhodospirillum rubrum; 31.9 kDa with the His tag; Homodimer by mass photometry; holds one [Fe4S4]-cluster in the dimer interface; No tag cleavage is described, and the theoretical mass of 64 kDa equals twice the 31.9 kDa of His-tagged MarH; also called H1 and H2; source: Rhodobacter capsulatus MM0422 (plasmid-based, anfH …)
B2: MarK subunit of the methylthio-alkane reductase catalytic component from Rhodospirillum rubrum (enzyme)
chain: T1 sequence 2
notes: MarK, subunit of the catalytic component of the methylthio-alkane reductase (marHDK) of Rhodospirillum rubrum; 50.8 kDa; No tag is described for MarK; also called K1 and K2; source: Rhodobacter capsulatus MM0422 (plasmid-based, anfH promoter), soluble fraction of the lysate; purified anaerobically with Strep-tagged MarD (Strep-Tactin XT 4Flow, PD-10 desalting)

Columns and labels:
[1] = biological target: T1, Mar(DK)2, catalytic component of the …; assay: cryo-EM structure; MgADP-AlF3-trapped complex: 22 nmol MarH2 and 3 nmol Mar(DK)2 in 100 mM MOPS pH 7.3, 50 mM Tris pH 7.8, 100 mM NaCl, 5 mM DT, 4 mM NaF, 0.2 mM AlCl3, 8 mM MgCl2, 1 mM ATP, 3 h at 30 °C; isolated by size-exclusion chromatography (HiLoad 26/600 Superdex 200 pg); anaerobic single-particle cryo-EM; details: both partners purified
[2] = biological target: the molecule itself; assay: mass photometry; TwoMP mass photometer; 0.5 µl of sample (500 nM stock, 4 mM sodium DT) added to 19.5 µl anaerobic measurement buffer (150 mM NaCl, 50 mM Tris pH 7.8, 10% glycerol, 10 mM sodium DT); each component measured alone
[3] = biological target: T2, MarD subunit of the methylthio-alkane …; assay: as above; details: both partners purified

Row | Binder | stoichiometry N [1] | stoichiometry N [2] | binding result [3]
1 | B1 | 1 and 2 | 2 | 
2 | B2 |  |  | binds
